Experimental data from article PMC10790703 (mBio, 2023).

Target: T1, ubiquitin E3 ligase TRIM59 (human (endogenous in 293T), UniProt Q8IWR1 1-403)
T1 construct: TRIM59, ubiquitin E3 ligase primarily located in the ER, in 293T cells
T1 sequence (looked up): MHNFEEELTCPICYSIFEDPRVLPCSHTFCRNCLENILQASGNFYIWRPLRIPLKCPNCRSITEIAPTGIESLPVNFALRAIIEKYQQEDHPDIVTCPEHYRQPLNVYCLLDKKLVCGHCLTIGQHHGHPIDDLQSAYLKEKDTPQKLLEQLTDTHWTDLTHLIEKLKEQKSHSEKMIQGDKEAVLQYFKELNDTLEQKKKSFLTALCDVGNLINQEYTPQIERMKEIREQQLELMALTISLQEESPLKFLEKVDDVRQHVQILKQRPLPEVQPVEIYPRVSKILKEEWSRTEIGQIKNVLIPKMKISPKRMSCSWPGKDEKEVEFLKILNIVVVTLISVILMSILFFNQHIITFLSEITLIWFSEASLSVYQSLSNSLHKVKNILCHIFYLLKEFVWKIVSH
Assay: co-IP
Details: partners not purified

B1: SARS-CoV-2 ORF3a dG188 mutant, HA-tagged (natural protein)
chain: MDLFMRIFTIGTVTLKQGEIKDATPSDFVRATATIPIQASLPFGWLIVGVALLAVFQSASKIITLKKRWQLALSKGVHFVCNLLLLFVTVYSHLLLVAAGLEAPFLYLYALVYFLQSINFVRIIMRLWLCWKCRSKNPLLYDANYFLCWHTNCYDYCIPYNSVTSSIVITSGDGTTSPISEHDYQIGYTEKWESGVKDCVVLHSYFTSDYYQLYSTQLSTDTGVEHVTFFIYNKIVDEPEEHVQIHTIDGSSGVVNPVMEPIYDEPTTTTSVPL
notes: also called G188 deletion mutant; E-ORF3a (represented by the dG188 mutant); not shown: HA, C-terminal, kept
- fold of pulled-down ORF3a against WT ORF3a (densitometry): ~1.5 fold
